Source: patent publication US20020103111A1, “Inhibitors of MAdCAM-1-mediated interactions and methods of use therefor” (Millennium Pharmaceuticals, Inc., priority 1996, published 2002)
Several values for one entry are separate records, joined by “and”; a condition that tells them apart may be missing. Equal entries are not always repeated. Bridge positions count the residues as written; N and C are the ends. Ends that are not written are not given here. * marks the point of attachment. Butanoyl(4-pyren-1-yl) = O=C(CCCc1ccc2ccc3cccc4ccc1c2c34)*; Tpa = triphenylacetyl, O=C(C(c1ccccc1)(c1ccccc1)c1ccccc1)*; Acetyl(1-pyrenyl) = O=C(Cc1ccc2ccc3cccc4ccc1c2c34)*; Phenylacetyl(4-Ph) = O=C(Cc1ccc(-c2ccccc2)cc1)*; Benzoyl(4-heptyl) = CCCCCCCc1ccc(C(=O)*)cc1; Acetyl(1-naphthyl) = O=C(Cc1cccc2ccccc12)*; Diphenylacetyl = O=C(C(c1ccccc1)c1ccccc1)*; cPrCO(2,2,3,3-Me4) = CC1(C)C(C(=O)*)C1(C)C; Ibuprofenoyl = CC(C)Cc1ccc(C(C)C(=O)*)cc1; Hexanoyl(6-Ph) = O=C(CCCCCc1ccccc1)*; PhAc = O=C(Cc1ccccc1)*

molecular target: human α4β7 integrin (human) (UniProt P13612); experiment: inhibition of HUT 78 cell adhesion to murine MAdCAM-1/mCk

Binder	IC50
{Butanoyl(4-pyren-1-yl)}-LDTSL (not fully specified (C-terminus); printed as Pba-Leu-Asp-Thr-Ser-Leu) [Pba-Leu-Asp-Thr-Ser-Leu (00386-1A)]	2.8 µM
Diphenylacetyl-LDTSL (not fully specified (C-terminus); printed as Dpa-Leu-Asp-Thr-Ser-Leu) [Dpa-Leu-Asp-Thr-Ser-Leu]	11 µM
Tpa-LDTSL [Tpa-Leu-Asp-Thr-Ser-Leu]	0.3 µM
{cPrCO(2,2,3,3-Me4)}-LDTSL [Tpc-Leu-Asp-Thr-Ser-Leu]	121 µM
PhAc-LDTSL (not fully specified (C-terminus); printed as Pha-Leu-Asp-Thr-Ser-Leu) [Pha-Leu-Asp-Thr-Ser-Leu]	2130 µM
Ac-LDTSL-NH2 [Ac-Leu-Asp-Thr-Ser-Leu]	530 µM and 278 µM
Ibuprofenoyl-LDTSL (not fully specified (C-terminus); printed as Impa-Leu-Asp-Thr-Ser-Leu) [Impa-Leu-Asp-Thr-Ser-Leu]	1140 µM
{Acetyl(1-naphthyl)}-LDTSL (not fully specified (C-terminus); printed as Npa-Leu-Asp-Thr-Ser-Leu) [Npa-Leu-Asp-Thr-Ser-Leu]	548 µM
{Phenylacetyl(4-Ph)}-LDTSL (not fully specified (C-terminus); printed as Bipa-Leu-Asp-Thr-Ser-Leu) [Bipa-Leu-Asp-Thr-Ser-Leu]	485 µM
{Hexanoyl(6-Ph)}-LDTSL (not fully specified (C-terminus); printed as Phx-Leu-Asp-Thr-Ser-Leu) [Phx-Leu-Asp-Thr-Ser-Leu]	818 µM
{Acetyl(1-pyrenyl)}-LDTSL (not fully specified (C-terminus); printed as Paa-Leu-Asp-Thr-Ser-Leu) [Paa-Leu-Asp-Thr-Ser-Leu]	0.5 µM
{Benzoyl(4-heptyl)}-LDTSL (not fully specified (C-terminus); printed as Hbz-Leu-Asp-Thr-Ser-Leu) [Hbz-Leu-Asp-Thr-Ser-Leu]	401 µM
Ac-LDTSL (not fully specified (C-terminus); printed as Ac-Leu-Asp-Thr-Ser-Leu) [Ac-Leu-Asp-Thr-Ser-Leu (00389-1A)]	205 µM

molecular target: human α4β7 integrin (human) (UniProt P13612); experiment: inhibition of HUT 78 cell adhesion to murine MAdCAM-1/mCk at 50 µM

Binder	% Adhesion Inhibition
{Butanoyl(4-pyren-1-yl)}-LDTSL (not fully specified (C-terminus); printed as Pba-Leu-Asp-Thr-Ser-Leu) [Pba-Leu-Asp-Thr-Ser-Leu (00386-1A)]	88%

molecular target: human α4β7 integrin (human) (UniProt P13612); experiment: inhibition of HUT 78 cell adhesion to murine MAdCAM-1/mCk at 500 µM

Binder	% Adhesion Inhibition
{cPrCO(2,2,3,3-Me4)}-LDTSL [Tpc-Leu-Asp-Thr-Ser-Leu]	39%
PhAc-LDTSL (not fully specified (C-terminus); printed as Pha-Leu-Asp-Thr-Ser-Leu) [Pha-Leu-Asp-Thr-Ser-Leu]	38%
Ac-LDTSL-NH2 [Ac-Leu-Asp-Thr-Ser-Leu]	50% and 71%
Ibuprofenoyl-LDTSL (not fully specified (C-terminus); printed as Impa-Leu-Asp-Thr-Ser-Leu) [Impa-Leu-Asp-Thr-Ser-Leu]	44%
{Acetyl(1-naphthyl)}-LDTSL (not fully specified (C-terminus); printed as Npa-Leu-Asp-Thr-Ser-Leu) [Npa-Leu-Asp-Thr-Ser-Leu]	39%
{Phenylacetyl(4-Ph)}-LDTSL (not fully specified (C-terminus); printed as Bipa-Leu-Asp-Thr-Ser-Leu) [Bipa-Leu-Asp-Thr-Ser-Leu]	54%
{Hexanoyl(6-Ph)}-LDTSL (not fully specified (C-terminus); printed as Phx-Leu-Asp-Thr-Ser-Leu) [Phx-Leu-Asp-Thr-Ser-Leu]	32%
{Benzoyl(4-heptyl)}-LDTSL (not fully specified (C-terminus); printed as Hbz-Leu-Asp-Thr-Ser-Leu) [Hbz-Leu-Asp-Thr-Ser-Leu]	51%
Ac-LDTSL (not fully specified (C-terminus); printed as Ac-Leu-Asp-Thr-Ser-Leu) [Ac-Leu-Asp-Thr-Ser-Leu (00389-1A)]	29%

molecular target: human α4β7 integrin (human), P13612; experiment: inhibition of RPMI 8866 cell adhesion to huMAdCAM-1-Ig

Binder	IC50
LDTSL (modifications not checked) [R1-Leu-Asp-Thr-Ser-Leu, L# 1491 (Table 4)]	3.4 µM

molecular target: human α4β7 integrin (human), P13612; experiment: inhibition of HUT 78 cell adhesion to murine MAdCAM-1/mCk

Binder	IC50
Ac-GLDTSL (not fully specified (C-terminus); printed as Ac-Gly-Leu-Asp-Thr-Ser-Leu) [Ac-Gly-Leu-Asp-Thr-Ser-Leu]	339 µM
Ac-GLDTS (not fully specified (C-terminus); printed as Ac-Gly-Leu-Asp-Thr-Ser) [Ac-Gly-Leu-Asp-Thr-Ser]	745 µM
Ac-LETSL (not fully specified (C-terminus); printed as Ac-Leu-Glu-Thr-Ser-Leu) [Ac-Leu-Glu-Thr-Ser-Leu]	60.7 µM
PLDTSL (modifications not checked) [Pba-Pro-Leu-Asp-Thr-Ser-Leu]	47 µM
Ac-RGLDTSL (not fully specified (C-terminus); printed as Ac-Arg-Gly-Leu-Asp-Thr-Ser-Leu) [Ac-Arg-Gly-Leu-Asp-Thr-Ser-Leu]	1580 µM
LATSL (modifications not checked) [Pba-Leu-Ala-Thr-Ser-Leu]	28 µM
Ac-RGLDT (not fully specified (C-terminus); printed as Ac-Arg-Gly-Leu-Asp-Thr) [Ac-Arg-Gly-Leu-Asp-Thr]	542 µM
Ac-LDTTL (not fully specified (C-terminus); printed as Ac-Leu-Asp-Thr-Thr-Leu) [Ac-Leu-Asp-Thr-Thr-Leu]	101 µM
Ac-CLDTSLC (disulfide 1-7) [Ac-Cys*-Leu-Asp-Thr-Ser-Leu-Cys*]	102 µM
Ac-RGLDTS (not fully specified (C-terminus); printed as Ac-Arg-Gly-Leu-Asp-Thr-Ser) [Ac-Arg-Gly-Leu-Asp-Thr-Ser]	1790 µM
Ac-LDVSL (not fully specified (C-terminus); printed as Ac-Leu-Asp-Val-Ser-Leu) [Ac-Leu-Asp-Val-Ser-Leu]	71 µM
Ac-LDSSL (not fully specified (C-terminus); printed as Ac-Leu-Asp-Ser-Ser-Leu) [Ac-Leu-Asp-Ser-Ser-Leu]	611 µM
Ac-WRGLDTS (not fully specified (C-terminus); printed as Ac-Trp-Arg-Gly-Leu-Asp-Thr-Ser) [Ac-Trp-Arg-Gly-Leu-Asp-Thr-Ser]	862 µM
Ac-LFTSL (not fully specified (C-terminus); printed as Ac-Leu-Phe-Thr-Ser-Leu) [Ac-Leu-Phe-Thr-Ser-Leu]	300 µM
Ac-HWRGLDT (not fully specified (C-terminus); printed as Ac-His-Trp-Arg-Gly-Leu-Asp-Thr) [Ac-His-Trp-Arg-Gly-Leu-Asp-Thr]	584 µM
Ac-LDTSF (not fully specified (C-terminus); printed as Ac-Leu-Asp-Thr-Ser-Phe) [Ac-Leu-Asp-Thr-Ser-Phe]	144 µM
LYTSL (modifications not checked) [Pba-Leu-Tyr-Thr-Ser-Leu]	30 µM
Ac-WRGLDT (not fully specified (C-terminus); printed as Ac-Trp-Arg-Gly-Leu-Asp-Thr) [Ac-Trp-Arg-Gly-Leu-Asp-Thr]	725 µM
Ac-LDASL (not fully specified (C-terminus); printed as Ac-Leu-Asp-Ala-Ser-Leu) [Ac-Leu-Asp-Ala-Ser-Leu]	1000 µM

molecular target: human α4β7 integrin (human), P13612; experiment: inhibition of HUT 78 cell adhesion to murine MAdCAM-1/mCk at 250 µM

Binder	% Adhesion Inhibition
LATSL (modifications not checked) [Pba-Leu-Ala-Thr-Ser-Leu]	100%
Ac-CLDTSLC (disulfide 1-7) [Ac-Cys*-Leu-Asp-Thr-Ser-Leu-Cys*]	51%

molecular target: human α4β7 integrin (human), P13612; experiment: inhibition of HUT 78 cell adhesion to murine MAdCAM-1/mCk at 500 µM

Binder	% Adhesion Inhibition
Ac-GLDTSL (not fully specified (C-terminus); printed as Ac-Gly-Leu-Asp-Thr-Ser-Leu) [Ac-Gly-Leu-Asp-Thr-Ser-Leu]	58%
Ac-GLDTS (not fully specified (C-terminus); printed as Ac-Gly-Leu-Asp-Thr-Ser) [Ac-Gly-Leu-Asp-Thr-Ser]	43%
Ac-LETSL (not fully specified (C-terminus); printed as Ac-Leu-Glu-Thr-Ser-Leu) [Ac-Leu-Glu-Thr-Ser-Leu]	98%
Ac-RGLDTSL (not fully specified (C-terminus); printed as Ac-Arg-Gly-Leu-Asp-Thr-Ser-Leu) [Ac-Arg-Gly-Leu-Asp-Thr-Ser-Leu]	35%
Ac-RGLDT (not fully specified (C-terminus); printed as Ac-Arg-Gly-Leu-Asp-Thr) [Ac-Arg-Gly-Leu-Asp-Thr]	48%
Ac-LDTTL (not fully specified (C-terminus); printed as Ac-Leu-Asp-Thr-Thr-Leu) [Ac-Leu-Asp-Thr-Thr-Leu]	98%
Ac-RGLDTS (not fully specified (C-terminus); printed as Ac-Arg-Gly-Leu-Asp-Thr-Ser) [Ac-Arg-Gly-Leu-Asp-Thr-Ser]	31%
Ac-LDSSL (not fully specified (C-terminus); printed as Ac-Leu-Asp-Ser-Ser-Leu) [Ac-Leu-Asp-Ser-Ser-Leu]	38%
Ac-WRGLDTS (not fully specified (C-terminus); printed as Ac-Trp-Arg-Gly-Leu-Asp-Thr-Ser) [Ac-Trp-Arg-Gly-Leu-Asp-Thr-Ser]	44%
Ac-LFTSL (not fully specified (C-terminus); printed as Ac-Leu-Phe-Thr-Ser-Leu) [Ac-Leu-Phe-Thr-Ser-Leu]	29%
Ac-HWRGLDT (not fully specified (C-terminus); printed as Ac-His-Trp-Arg-Gly-Leu-Asp-Thr) [Ac-His-Trp-Arg-Gly-Leu-Asp-Thr]	49%
Ac-LDTSF (not fully specified (C-terminus); printed as Ac-Leu-Asp-Thr-Ser-Phe) [Ac-Leu-Asp-Thr-Ser-Phe]	86%
LYTSL (modifications not checked) [Pba-Leu-Tyr-Thr-Ser-Leu]	100%
Ac-WRGLDT (not fully specified (C-terminus); printed as Ac-Trp-Arg-Gly-Leu-Asp-Thr) [Ac-Trp-Arg-Gly-Leu-Asp-Thr]	46%
Ac-LDASL (not fully specified (C-terminus); printed as Ac-Leu-Asp-Ala-Ser-Leu) [Ac-Leu-Asp-Ala-Ser-Leu]	47%
